Measured values from PMC3684277.

Target: HCMV capsid (icosahedral T=16 capsid shell of MCP, mCP, mC-BP and SCP) (human cytomegalovirus strain AD169)
Assay: co-sedimentation

In the case of “UL32-encoded basic phosphorylated protein pp150 (natural protein)”, the % decrease in chemically treated particles is reported as 5%.
